# Results: publication PMC6533540, “DprA Is Essential for Natural Competence in Riemerella anatipestifer and Has a Conserved Evolutionary Mechanism”
# T1: DprA R123E (Riemerella anatipestifer ATCC11845, UniProt E4TBU2 1-367, R123E)
# T1 sequence: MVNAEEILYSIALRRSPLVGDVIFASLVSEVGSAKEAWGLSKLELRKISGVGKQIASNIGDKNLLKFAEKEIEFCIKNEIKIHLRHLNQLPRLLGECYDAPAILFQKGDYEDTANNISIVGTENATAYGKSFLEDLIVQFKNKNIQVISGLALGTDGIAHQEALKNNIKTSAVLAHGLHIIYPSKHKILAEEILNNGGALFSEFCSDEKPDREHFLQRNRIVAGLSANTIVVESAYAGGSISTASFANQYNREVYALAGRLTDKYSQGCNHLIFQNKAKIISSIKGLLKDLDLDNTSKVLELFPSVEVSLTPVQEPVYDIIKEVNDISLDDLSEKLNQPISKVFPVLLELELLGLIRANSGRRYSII
# B1: dsDNA annealed from RA-ssDNA1 (dsDNA)
# DNA 1: TAGGCTCTGCTAAGGAAGCGTGGGGTCTGTCTAAGTTGGA
# DNA 2: TCCAACTTAGACAGACCCCACGCTTCCTTAGCAGAGCCTA
# Target: T1, DprA R123E
# Test: EMSA; up to 20 uM DprA R123E; 25 mM HEPES pH 7.0, 150 mM NaCl, 10% glycerol, 1 mM DTT, 0.05% IGEPAL, 30 min at 30 C; 8% native PAGE in 0.5x TBE on ice
# Conditions: protein: recombinant, tags: C-terminal His6, chain copies: 2, label: biotin
Binder,binding result,binding result (blunt)
AAAAACTACGGAACTGACTAAAGGCAGAAAAACTAAACGG (ssDNA) [RA-ssDNA2],no binding,
TAGGCTCTGCTAAGGAAGCGTGGGGTCTGTCTAAGTTGGA (ssDNA) [RA-ssDNA1],no binding,
B1,,no binding
